Results as given in US20020042382A1 (UNITED STATES OF AMERICA AS REPRESENTED BY THE SECRETARY OF …, published 2002).

T1: Sequestrin GST-R(0-IV) fusion protein (Plasmodium falciparum)
T1 construct: The five domains R0-RIV are said to represent the entirety of amino acids H42-A458; also called domain combination R(0-IV); not shown: glutathione S-transferase fusion partner encoded by vector pGEX-3X (Pharmacia), followed by a Factor Xa site
T1 chain: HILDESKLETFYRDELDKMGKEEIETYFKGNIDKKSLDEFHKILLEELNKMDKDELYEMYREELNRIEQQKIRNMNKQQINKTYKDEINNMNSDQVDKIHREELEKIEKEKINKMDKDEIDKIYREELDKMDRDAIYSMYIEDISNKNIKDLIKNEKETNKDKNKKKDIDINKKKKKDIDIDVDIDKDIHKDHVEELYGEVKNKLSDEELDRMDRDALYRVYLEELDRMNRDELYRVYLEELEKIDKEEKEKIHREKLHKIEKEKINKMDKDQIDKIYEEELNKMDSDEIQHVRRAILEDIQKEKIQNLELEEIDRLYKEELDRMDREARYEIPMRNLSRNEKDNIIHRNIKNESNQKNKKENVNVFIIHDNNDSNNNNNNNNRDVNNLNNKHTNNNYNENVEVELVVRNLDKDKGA

B1: trpE fusion protein representing Sequestrin amino acids H42-A458 (other)
chain: HILDESKLETFYRDELDKMGKEEIETYFKGNIDKKSLDEFHKILLEELNKMDKDELYEMYREELNRIEQQKIRNMNKQQINKTYKDEINNMNSDQVDKIHREELEKIEKEKINKMDKDEIDKIYREELDKMDRDAIYSMYIEDISNKNIKDLIKNEKETNKDKNKKKDIDINKKKKKDIDIDVDIDKDIHKDHVEELYGEVKNKLSDEELDRMDRDALYRVYLEELDRMNRDELYRVYLEELEKIDKEEKEKIHREKLHKIEKEKINKMDKDQIDKIYEEELNKMDSDEIQHVRRAILEDIQKEKIQNLELEEIDRLYKEELDRMDREARYEIPMRNLSRNEKDNIIHRNIKNESNQKNKKENVNVFIIHDNNDSNNNNNNNNRDVNNLNNKHTNNNYNENVEVELVVRNLDKDKGA
notes: Tested in a bacterial extract, blotted
B2: CD36 (purified) (receptor)
chain: GCDRNCGLIAGAVIGAVLAVFGGILMPVGDLLIQKTIKKQVVLEEGTIAFKNWVKTGTEVYRQFWIFDVQNPQEVMMNSSNIQVKQRGPYTYRVRFLAKENVTQDAEDNTVSFLQPNGAIFEPSLSVGTEADNFTVLNLAVAAASHIYQNQFVQMILNSLINKSKSSMFQVRTLRELLWGYRDPFLSLVPYPVTTTVGLFYPYNNTADGVYKVFNGKDNISKVAIIDTYKGKRNLSYWESHCDMINGTDAASFPPFVEKSQVLQFFSSDICRSIYAVFESDVNLKGIPVYRFVLPSKAFASPVENPDNYCFCTEKIISKNCTSYGVLDISKCKEGRPVYISLPHFLYASPDVSEPIDGLNPNEEEHRTYLDIEPITGFTLQFAKRLQVNLLVKPSEKIQVLKNLKRNYIVPILWLNETGTIGDEKANMFRSQVTGKINLLGLIEMILLSVGVVMFVAFMISYCACRSKTIK
modifications: 125I-labelled where used as probe
notes: Purified protein, a gift from Dr. N. Tandon; Used 125I-labelled in solution or coated on plates or dishes; also called 125I-CD36; radiolabelled human CD36

Key:
[1] = target: radiolabeled ICAM-1 (UniProt P05362 28-532, radiolabelled); test: bacterial extracts blotted and probed with radiolabeled ICAM-1
[2] = target: T1, Sequestrin GST-R(0-IV) fusion protein; test: competition of 125I-CD36 binding to plate-coated GST-R(0-IV) by unlabeled CD36, gamma counting

Chain of radiolabeled ICAM-1 (P05362 28-532 limits assumed): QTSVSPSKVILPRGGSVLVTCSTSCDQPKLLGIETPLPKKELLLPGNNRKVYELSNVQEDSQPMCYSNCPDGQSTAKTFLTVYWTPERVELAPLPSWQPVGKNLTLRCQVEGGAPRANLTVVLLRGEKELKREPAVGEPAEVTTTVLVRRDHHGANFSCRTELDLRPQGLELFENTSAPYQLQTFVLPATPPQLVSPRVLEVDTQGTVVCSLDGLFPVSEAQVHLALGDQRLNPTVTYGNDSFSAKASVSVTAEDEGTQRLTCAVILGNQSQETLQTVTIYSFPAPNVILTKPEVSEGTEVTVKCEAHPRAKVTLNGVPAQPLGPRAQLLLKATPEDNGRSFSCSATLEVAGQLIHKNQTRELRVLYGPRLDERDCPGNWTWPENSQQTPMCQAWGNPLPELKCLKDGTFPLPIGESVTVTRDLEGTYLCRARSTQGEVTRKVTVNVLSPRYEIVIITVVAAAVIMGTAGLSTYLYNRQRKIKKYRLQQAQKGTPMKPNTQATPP

| Binder | binding result [1] | Ki [2] |
| --- | --- | --- |
| B1 | no binding | – |
| B2 | – | ~6 nM |
